The results in this text go back to article PMC11331121.

Targets include H4K5ac peptide; H4K8ac peptide; H3K14ac peptide; H3K9ac peptide.
Holding throughout (experiment): SPR
In general terms: SPR reads the build-up and loss of mass on a sensor chip optically.

In general, Kd refers to the free concentration of one partner at which half of the binding sites on the other are occupied at equilibrium, for simple one-to-one binding. Low values mean higher affinity, high ones lower affinity.

B1: triple Tudor domains (3TD) of Drosophila Eggless/SetDB1, wild type (domain or fragment)
chain: SDYVHEVPPPGEIVRPPIQLGETYYAVKNKAIASWVSIKVIEFTESTAINGNTMKSYKIRYLNTPYQMIKTVTAKHIAYFEPPPVRLTIGTRVIAYFDGTTLSRGKDKGVVQSAFYPGIIAEPLKQANRYRYLIFYDDGYTQYVPHRDVRLVCQASEKVWEDVHAASRDFIQKYVEKYSVDRPMVQCTRGQSMTTESNGTWLYARVIDIDCSLVLMQFEGDKNHTEWIYRGSLRLGPVFRETQNNMNSSSAQQLRVP
Turning to B1, the Kd in the test with H4K5ac peptide was 925 µM; with H4K8ac peptide, 654 µM; in the test with H3K14ac peptide, 339 µM; with H3K9ac peptide it was 823 µM.
